Patent US20200264182A1, “METHOD FOR DETECTING PROSTATE CANCER” (J-OIL MILLS, INC., priority 2017, published 2020)

Legend:
[1] = FAC binding constant; conditions: at 25° C.
Procedure: (§1) Details of the FAC method are described in Patent Document 2 filed by some of the present applicants, for example.
(§2) Binding constants (at 25° C.) of PhoSL, SRL, NSL and LSL belonging to the fucose α1→6 specific lectin for various sugar chains are shown in Tables 2 to 5.

[2] = FAC binding constant (Table 5 entry); conditions: Table 5: sugar chain having no fucose; at 25° C.
Procedure: as §1, §2

[3] = Binding to sugar chains, summary of Tables 2 to 5
Procedure: as §1, §2
The AAL and AOL bind to the fucose α1→6 sugar chains (sugar chains No. 015, 201 to 203, and 401 to 418), as well as to the glycolipid-type sugar chain excluding the fucose α1→6 (sugar chains No. 718, 722, 723, 727, 909, 910 and 933). The LCL and PSL bind to the fucose α1→6 sugar chain, as well as to sugar chain excluding the α1→6 fucose (sugar chains No. 003, and 005 to 014).
Furthermore, the binding constant of the fucose α1→6 specific lectin is not decreased even if a sialic acid is added to the fucose α1→6 sugar chain (sugar chains No. 601 and 602). In addition, the fucose α1→6 specific lectin also strongly binds to the triple-strand (sugar chains No. 407 to 413) and the four-strand (sugar chains No. 418) of the fucose uα1→6 sugar chain.

[4] = sugar chain having fucose other than α1→6 fucose

- Binding constant for sugar chain No. 728 ([1]; Table 3: sugar chain having fucose other than α1→6 fucose): <1000 M⁻¹
- Binding constant for sugar chain No. 419 [1, 4]: <1000 M⁻¹
- Binding constant for sugar chain No. 420 [1, 4]: <1000 M⁻¹
- Binding constant for sugar chain No. 718 [1, 4]: <1000 M⁻¹
- Binding constant for sugar chain No. 719 [1, 4]: <1000 M⁻¹
- Binding constant for sugar chain No. 720 [1, 4]: <1000 M⁻¹
- Binding constant for sugar chain No. 721 [1, 4]: <1000 M⁻¹
- Binding constant for sugar chain No. 722 [1, 4]: <1000 M⁻¹
- Binding constant for sugar chain No. 723 [1, 4]: <1000 M⁻¹
- Binding constant for sugar chain No. 726 [1, 4]: <1000 M⁻¹
- Binding constant for sugar chain No. 727 [1, 4]: <1000 M⁻¹
- Binding constant for sugar chain No. 729 [1, 4]: <1000 M⁻¹
- Binding constant for sugar chain No. 730 [1, 4]: <1000 M⁻¹
- Binding constant for sugar chain No. 731 [1, 4]: <1000 M⁻¹
- Binding constant for sugar chain No. 739 [1, 4]: <1000 M⁻¹
- Binding constant for sugar chain No. 909 [1, 4]: <1000 M⁻¹
- Binding constant for sugar chain No. 910 [1, 4]: <1000 M⁻¹
- Binding constant for sugar chain No. 931 [1, 4]: <1000 M⁻¹
- Binding constant for sugar chain No. 932 [1, 4]: <1000 M⁻¹
- Binding constant for sugar chain No. 933 [1, 4]: <1000 M⁻¹
- Binding constant for sugar chain No. 001 ([1]; sugar chain having no fucose): <1000 M⁻¹
- Binding constant for sugar chain No. 002 ([1]; sugar chain having no fucose): <1000 M⁻¹
- Binding constant for sugar chain No. 003 ([1]; sugar chain having no fucose): 7200 M⁻¹
- Binding constant for sugar chain No. 004 ([1]; sugar chain having no fucose): <1000 M⁻¹
- Binding constant for sugar chain No. 005 ([1]; sugar chain having no fucose): <1000 M⁻¹
- Binding constant for sugar chain No. 006 ([1]; sugar chain having no fucose): 14000 M⁻¹
- Binding constant for sugar chain No. 007 ([1]; sugar chain having no fucose): <1000 M⁻¹
- Binding constant for sugar chain No. 008 ([1]; sugar chain having no fucose): 18000 M⁻¹
- Binding constant for sugar chain No. 009 ([1]; sugar chain having no fucose): 18000 M⁻¹
- Binding constant for sugar chain No. 010 ([1]; sugar chain having no fucose): 13000 M⁻¹
- Binding constant for sugar chain No. 011 ([1]; sugar chain having no fucose): 14000 M⁻¹
- Binding constant for sugar chain No. 012 ([1]; sugar chain having no fucose): 25000 M⁻¹
- Binding constant for sugar chain No. 013 ([1]; sugar chain having no fucose): 17000 M⁻¹
- Binding constant for sugar chain No. 014 ([1]; sugar chain having no fucose): 17000 M⁻¹
- Binding constant for sugar chain No. 101 ([1]; sugar chain having no fucose): <1000 M⁻¹
- Binding constant for sugar chain No. 103 ([1]; sugar chain having no fucose): <1000 M⁻¹
- Binding constant for sugar chain No. 104 ([1]; sugar chain having no fucose): <1000 M⁻¹
- Binding constant for sugar chain No. 105 ([1]; sugar chain having no fucose): <1000 M⁻¹
- Binding constant for sugar chain No. 107 ([1]; sugar chain having no fucose): <1000 M⁻¹
- Binding constant for sugar chain No. 108 ([1]; sugar chain having no fucose): <1000 M⁻¹
- Binding constant for sugar chain No. 301 ([1]; sugar chain having no fucose): <1000 M⁻¹
- Binding constant for sugar chain No. 304 ([1]; sugar chain having no fucose): <1000 M⁻¹
- Binding constant for sugar chain No. 305 ([1]; sugar chain having no fucose): <1000 M⁻¹
- Binding constant for sugar chain No. 307 ([1]; sugar chain having no fucose): <1000 M⁻¹
- Binding constant for sugar chain No. 308 ([1]; sugar chain having no fucose): <1000 M⁻¹
- Binding constant for sugar chain No. 313 ([1]; sugar chain having no fucose): <1000 M⁻¹
- Binding constant for sugar chain No. 314 ([1]; sugar chain having no fucose): <1000 M⁻¹
- Binding constant for sugar chain No. 323 ([1]; sugar chain having no fucose): <1000 M⁻¹
- Binding constant for sugar chain No. 501 ([1]; sugar chain having no fucose): <1000 M⁻¹
- Binding constant for sugar chain No. 502 ([1]; sugar chain having no fucose): <1000 M⁻¹
- Binding constant for sugar chain No. 503 ([1]; sugar chain having no fucose): <1000 M⁻¹
- Binding constant for sugar chain No. 504 ([1]; sugar chain having no fucose): <1000 M⁻¹
- Binding constant for sugar chain No. 701 ([1]; sugar chain having no fucose): <1000 M⁻¹
- Binding constant for sugar chain No. 702 ([1]; sugar chain having no fucose): <1000 M⁻¹
- Binding constant for sugar chain No. 703 ([1]; sugar chain having no fucose): <1000 M⁻¹
- Binding constant for sugar chain No. 704 ([1]; sugar chain having no fucose): <1000 M⁻¹
- Binding constant for sugar chain No. 705 ([1]; sugar chain having no fucose): <1000 M⁻¹
- Binding constant for sugar chain No. 706 ([1]; sugar chain having no fucose): <1000 M⁻¹
- Binding constant for sugar chain No. 707 ([1]; sugar chain having no fucose): <1000 M⁻¹
- Binding constant for sugar chain No. 708 ([1]; sugar chain having no fucose): <1000 M⁻¹
- Binding constant for sugar chain No. 709 ([1]; sugar chain having no fucose): <1000 M⁻¹
- Binding constant for sugar chain No. 710 ([1]; sugar chain having no fucose): <1000 M⁻¹
- Binding constant for sugar chain No. 711 ([1]; sugar chain having no fucose): <1000 M⁻¹
- Binding constant for sugar chain No. 712 ([1]; sugar chain having no fucose): <1000 M⁻¹
- Binding constant for sugar chain No. 713 ([1]; sugar chain having no fucose): <1000 M⁻¹
- Binding constant for sugar chain No. 715 ([1]; sugar chain having no fucose): <1000 M⁻¹
- Binding constant for sugar chain No. 716 ([1]; sugar chain having no fucose): <1000 M⁻¹
- Binding constant for sugar chain No. 717 ([1]; sugar chain having no fucose): <1000 M⁻¹
- Binding constant for sugar chain No. 724 ([1]; sugar chain having no fucose): <1000 M⁻¹
- Binding constant for sugar chain No. 725 ([1]; sugar chain having no fucose): <1000 M⁻¹
- Binding constant for sugar chain No. 732 ([1]; sugar chain having no fucose): <1000 M⁻¹
- Binding constant for sugar chain No. 733 ([1]; sugar chain having no fucose): <1000 M⁻¹
- Binding constant for sugar chain No. 734 ([1]; sugar chain having no fucose): <1000 M⁻¹
- Binding constant for sugar chain No. 735 ([1]; sugar chain having no fucose): <1000 M⁻¹
- Binding constant for sugar chain No. 736 ([1]; sugar chain having no fucose): <1000 M⁻¹
- Binding constant for sugar chain No. 737 ([1]; sugar chain having no fucose): <1000 M⁻¹
- Binding constant for sugar chain No. 738 ([1]; sugar chain having no fucose): <1000 M⁻¹
- Binding constant for sugar chain No. 901 ([1]; sugar chain having no fucose): <1000 M⁻¹
- Binding constant for sugar chain No. 902 ([1]; sugar chain having no fucose): <1000 M⁻¹
- Binding constant for sugar chain No. 903 ([1]; sugar chain having no fucose): <1000 M⁻¹
- Binding constant for sugar chain No. 905 ([1]; sugar chain having no fucose): <1000 M⁻¹
- Binding constant for sugar chain No. 906 ([1]; sugar chain having no fucose): <1000 M⁻¹
- Binding constant for sugar chain No. 907 ([1]; sugar chain having no fucose): <1000 M⁻¹
- Binding constant for sugar chain No. 015 ([1]; sugar chain having α1→6 fucose): 56000 M⁻¹
- Binding constant for sugar chain No. 201 ([1]; sugar chain having α1→6 fucose): 500000 M⁻¹
- Binding constant for sugar chain No. 202 ([1]; sugar chain having α1→6 fucose): 110000 M⁻¹
- Binding constant for sugar chain No. 203 ([1]; sugar chain having α1→6 fucose): 730000 M⁻¹
- Binding constant for sugar chain No. 401 ([1]; sugar chain having α1→6 fucose): 42000 M⁻¹
- Binding constant for sugar chain No. 402 ([1]; sugar chain having α1→6 fucose): 59000 M⁻¹
- Binding constant for sugar chain No. 403 ([1]; sugar chain having α1→6 fucose): 99000 M⁻¹
- Binding constant for sugar chain No. 404 ([1]; sugar chain having α1→6 fucose): 58000 M⁻¹
- Binding constant for sugar chain No. 405 ([1]; sugar chain having α1→6 fucose): 47000 M⁻¹
- Binding constant for sugar chain No. 406 ([1]; sugar chain having α1→6 fucose): 18000 M⁻¹
- Binding constant for sugar chain No. 407 ([1]; sugar chain having α1→6 fucose): 1000 M⁻¹
- Binding constant for sugar chain No. 410 ([1]; sugar chain having α1→6 fucose): <1000 M⁻¹
- Binding constant for sugar chain No. 413 ([1]; sugar chain having α1→6 fucose): <1000 M⁻¹
- Binding constant for sugar chain No. 418 ([1]; sugar chain having α1→6 fucose): <1000 M⁻¹
- Binding constant for sugar chain No. 601 ([1]; sugar chain having α1→6 fucose): 30000 M⁻¹
- Binding constant for sugar chain No. 602 ([1]; sugar chain having α1→6 fucose): 24000 M⁻¹
- Binding constant for sugar chain No. 728 [2]: <1000 M⁻¹
- binding to sugar chain excluding the α1→6 fucose (in words) ([3]; sugar chains No. 003, and 005 to 014 for LCL and PSL): bind
- binding to the fucose α1→6 sugar chains (in words) ([3]; sugar chains No. 015, 201 to 203, and 401 to 418): bind
B1: LCL: Lens culinaris lectin, affinity for fucose α1→6 but not specific (protein)
chain 1: TETTSFSITKFSPDQKNLIFQGDGYTTKGKLTLTKAVKSTVGRALYSTPIHIWDRDTGNVANFVTSFTFVIDAPSSYNVADEFTFFIAPVDTKPQTGGGYLGVFNSKEYDKTSQTVAVEFDTFYNAAWDPSNKERHIGIDVNSIKSVNTKSWNLQNGERANVVIAFNAATNVLTVTLTYP
chain 2: VTSYTLNEVVPLKDVVPEWVRIGFSATTGAEFAAHEVHSWSFHSELGGTSSS
